Experimental data reported in paper PMC6122996 (The Journal of Cell Biology, 2018).
Numbering of substitutions follows the chain as printed.

B1: GST-CENP-F-NBD (GST-tagged CENP-F fragment containing its Nde1-binding domain) (domain or fragment, human, UniProt P49454 2122-2297, looked up)
chain: EKLRVRIEADEKKQLHIAEKLKERERENDSLKDKVENLERELQMSEENQELVILDAENSKAEVETLKTQIEEMARSLKVFELDLVTLRSEKENLTKQIQEKQGQLSELDKLLSSFKSLLEEKEQAEIQIKEESKTAVEMLQNQLKELNEAVAALCGDQEIMKATEQSLDPPIEEEH
B2: GFP-Nde1-3E (triple phosphomimetic Nde1) (natural protein, mouse, UniProt Q9CZA6 1-344, looked up)
chain: MEDSGKTFESEEEETNYWRDLAMTYKQRAENTQEELREFQEGSREYEAELEAQLQQIETRNRDLLSENNRLRMELESVKEKFEMQHSEGYRQISALEDDLAQTKAIKDQLQKYIRELEQANDDLERAKRATIMSLEDFEQRLNQAIERNAFLESELDEKENLLESVQRLKDEARDLRQELAVQQKQDKPRTPMPGSGQAKRTDMAVQATGSVPSEPVAHRGPSSGLNTPGMFRRGLDSSTSGEPLEPAARISALNIVGDLLRKVGALESKLASCRNFMYDQSPSRTSGPASGRGTKNRDGVDRRPGSTSVGDKGSGKRLEFGKPASEPASPALPSAQGVVKLLL

Columns and labels:
CENP-F = CENP-F (UniProt P49454); assay: anti-GFP co-immunoprecipitation; conditions: reference: GFP WT Nde1; sites T215,T243,T246
[1] = biological target: T1, recombinant WT full-length Nde1, not phosphorylated (dephospho-Nde1) (mouse, UniProt Q9CZA6 1-344); assay: pull-down
T1 sequence (looked up): B2 chain with E215T, E243T, E246T

[2] = biological target: B1; assay: pull-down

**Q.** How did the “binding against the reference” value (CENP-F) turn out when Nde1 (from UniProt Q9CZA6) GFP-Nde1-3A was run?
**A.** weaker

**Q.** Does B1 bind [1]?
**A.** binds

**Q.** B2 was tested. Which “fold level pulled down against Nde1-3A” value [2] did it give?
**A.** 2.5 fold
